For series [1], the target named is ALIXV, the middle domain (V-domain) of ALIX (monomeric form) (UniProt Q8WUM4). The series is described as follows: SEC-MALS. On the technique in general: Size exclusion chromatography separates by hydrodynamic size, large species first.
In series [2] the target is ALIX_(Bro1-V), ALIX lacking the proline rich domain (monomeric form). The series is described as follows: SEC-MALS.
The target in series [3] is peptide derived from EIAV Gag p9 (equine infectious anemia virus (EIAV)). Description: ITC. On the technique in general: In ITC the heat of successive injections is recorded.
The series “SEC-MALS” deals with the molecule itself. Description: SEC-MALS.

Regarding “ALIXV, the middle domain (V-domain) of ALIX (monomeric form) (from UniProt Q8WUM4 360-702) (domain or fragment)”, the stoichiometry N – broadly, a count of units in the complex or per binding partner – in series [1] turned out to be 2.

In series [2], “ALIX_(Bro1-V), ALIX lacking the proline rich domain (monomeric form) (domain or fragment)” returned a stoichiometry N of 2.

As to “dimeric ALIXV (from UniProt Q8WUM4 360-702) (complex)”, in series [3], the Kd (usually the constant that tells how readily two partners part at equilibrium) is 8 µM.

B1: ALIX_(Vmut2) (domain or fragment)
chain: PVSVQQSLAAYNQRKADLVNRSIAQMREATTLANGVLASLNLPAAIEDVSGDTVPQSILTKSRSVIEQGGIQTVDQLIKELPELLQRNREILDESLRLLDEEEATDNDLRAKFKERWQRTPSNELYKPLRAEGTNFRTVLDKAVQADGQVKECYQSHRDTIVLLCKPEPELNAAIPSANPAKTMQGSEVVNVLKSLLSNLDEVKKEREGLENDLKSVNFDMTSKFLTALAQDGVINEEALSVTELDRVYGGLTTKVQESLKKQEGLLKNIQVSHQEFSKMKQSYKKANLREEVLKNLATAYDNFVELVANLKEGTKFYNELTEILVRFQNKCSDIVFARKTER
Turning to B1, in the series “SEC-MALS”, the “stoichiometry N” value is 2.

These data come from PMC2699623 (Structure (London, England : 1993), 2009).
